Laboratory results reported in patent publication US20240409621A1.

Columns and labels:
[1] = target: F protein of RSV A2 (on the virus in the neutralization assay) (respiratory syncytial virus, A2 strain) (UniProt P03420); assay: cell-based or functional assay
[2] = target: F protein of RSV type B strain 18537 (on the virus in the neutralization assay) (respiratory syncytial virus type B, strain 18537) (UniProt P13843); assay: cell-based or functional assay

D25 (antibody)
IC50 of each RSV neutralizing antibody, RSV A2 [1]: 0.0222 µg/mL
IC50 of each RSV neutralizing antibody, 18537 [2]: 0.167 µg/mL
